Laboratory results taken from article doi:10.1101/2020.02.11.944462.

What was measured:
[1] = biological target: 2019-nCoV S prefusion-stabilized ectodomain (residues 1-1208, two proline substitutions, GSAS at the (2019-nCoV | bacteriophage T4)); test: SPR; […], Biacore X100; 10 mM HEPES pH 8.0, 150 mM NaCl, 0.05% Tween 20; […]; 1:1 binding model
[2] = biological target: 2019-nCoV S prefusion-stabilized ectodomain (residues 1-1208, two proline substitutions, GSAS at the (2019-nCoV | bacteriophage T4)); test: cryo-EM structure

Chain of human angiotensin-converting enzyme 2 (ACE2), residues 1-615, untagged (Q9BYF1 18-615): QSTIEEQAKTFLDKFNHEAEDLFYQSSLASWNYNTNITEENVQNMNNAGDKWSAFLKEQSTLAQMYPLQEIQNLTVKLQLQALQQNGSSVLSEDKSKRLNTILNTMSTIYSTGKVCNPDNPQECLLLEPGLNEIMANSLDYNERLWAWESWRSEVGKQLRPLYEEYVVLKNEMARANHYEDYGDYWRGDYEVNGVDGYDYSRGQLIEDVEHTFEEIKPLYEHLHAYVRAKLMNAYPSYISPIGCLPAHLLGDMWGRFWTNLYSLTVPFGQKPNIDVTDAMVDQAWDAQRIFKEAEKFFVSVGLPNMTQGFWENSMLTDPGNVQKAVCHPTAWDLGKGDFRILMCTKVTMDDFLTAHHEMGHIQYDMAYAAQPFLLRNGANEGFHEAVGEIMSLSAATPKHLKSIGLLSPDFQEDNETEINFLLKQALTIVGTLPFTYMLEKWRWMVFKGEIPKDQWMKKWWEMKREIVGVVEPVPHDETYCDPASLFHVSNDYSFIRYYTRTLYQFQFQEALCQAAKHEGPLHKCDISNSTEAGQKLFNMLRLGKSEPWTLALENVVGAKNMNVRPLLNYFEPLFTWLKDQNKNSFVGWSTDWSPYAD

Substance | Kd [1] [nM] | stoichiometry N [2]
human angiotensin-converting enzyme 2 (ACE2), residues 1-615, untagged (from UniProt Q9BYF1 18-615) (receptor) | 15 | –
2019-nCoV S prefusion-stabilized ectodomain (residues 1-1208, two proline substitutions, GSAS at the (domain or fragment) | – | 3
